These are literature values, as cited in paper PMC2696053.

The target in series [1] is Delta-like 1 (Homo sapiens) (UniProt O00548). As to the kind of experiment: surface plasmon resonance.
Series [2] deals with Delta ECD (Drosophila melanogaster) (UniProt P10041). As to the kind of experiment: ELISA.
UniProt P10041, sequence (P10041 19-596, stated change not applied): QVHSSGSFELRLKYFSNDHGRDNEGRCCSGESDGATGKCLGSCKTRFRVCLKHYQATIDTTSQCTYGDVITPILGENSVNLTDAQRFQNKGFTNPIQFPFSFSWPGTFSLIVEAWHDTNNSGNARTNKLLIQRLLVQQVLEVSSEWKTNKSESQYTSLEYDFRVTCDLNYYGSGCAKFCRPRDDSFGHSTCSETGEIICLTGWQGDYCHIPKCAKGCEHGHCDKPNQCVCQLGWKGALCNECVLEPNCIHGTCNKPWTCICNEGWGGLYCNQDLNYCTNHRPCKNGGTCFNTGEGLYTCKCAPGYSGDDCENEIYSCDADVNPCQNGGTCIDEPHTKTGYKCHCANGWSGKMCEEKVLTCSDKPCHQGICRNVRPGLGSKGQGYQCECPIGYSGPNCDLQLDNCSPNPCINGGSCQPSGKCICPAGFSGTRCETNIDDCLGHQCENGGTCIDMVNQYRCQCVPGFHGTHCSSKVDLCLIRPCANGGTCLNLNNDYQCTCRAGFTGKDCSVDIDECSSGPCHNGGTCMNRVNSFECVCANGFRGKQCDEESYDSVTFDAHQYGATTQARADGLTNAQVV

UniProt O00548, sequence (O00548 18-545, stated change not applied): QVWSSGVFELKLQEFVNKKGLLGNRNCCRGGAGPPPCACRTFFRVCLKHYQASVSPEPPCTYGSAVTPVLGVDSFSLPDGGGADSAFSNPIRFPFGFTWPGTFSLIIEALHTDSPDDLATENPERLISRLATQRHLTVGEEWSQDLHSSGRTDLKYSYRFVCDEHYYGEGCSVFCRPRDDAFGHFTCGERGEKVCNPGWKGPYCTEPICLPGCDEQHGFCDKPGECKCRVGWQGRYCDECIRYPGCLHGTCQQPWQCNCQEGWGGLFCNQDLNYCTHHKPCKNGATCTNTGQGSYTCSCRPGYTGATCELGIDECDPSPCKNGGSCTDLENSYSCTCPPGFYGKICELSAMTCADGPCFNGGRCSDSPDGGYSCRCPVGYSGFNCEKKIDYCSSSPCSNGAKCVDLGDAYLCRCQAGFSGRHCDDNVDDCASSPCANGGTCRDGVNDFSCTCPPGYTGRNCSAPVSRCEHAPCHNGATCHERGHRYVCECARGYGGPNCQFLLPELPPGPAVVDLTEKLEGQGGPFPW

Turning to “Notch1 EGF-like repeats 11-14 (from UniProt P46531)”, the Kd in series [1] is 130 µM.

With “Notch EGF-like repeats 11-20 (from UniProt P07207)”, the Kd in series [2] was 0.00187 µM.
